Results from publication PMC9482650, “Quantitative fragmentomics allow affinity mapping of interactomes” (Nature Communications, 2022).

T1: SIPA1L2, Q9P2F8
T1 sequence (Q9P2F8 945-1036, limits assumed, looked up): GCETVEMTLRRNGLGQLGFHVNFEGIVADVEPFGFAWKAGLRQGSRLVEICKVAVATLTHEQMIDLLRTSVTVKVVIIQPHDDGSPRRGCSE

T2: SHANK1, Q9Y566
T2 sequence (Q9Y566 658-767, limits assumed, looked up): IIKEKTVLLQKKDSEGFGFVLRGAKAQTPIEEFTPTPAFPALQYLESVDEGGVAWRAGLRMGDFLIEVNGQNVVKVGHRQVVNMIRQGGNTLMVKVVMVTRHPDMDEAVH

T3: NHERF3_3, Q5T2W1
T3 sequence (Q5T2W1 238-333, limits assumed, looked up): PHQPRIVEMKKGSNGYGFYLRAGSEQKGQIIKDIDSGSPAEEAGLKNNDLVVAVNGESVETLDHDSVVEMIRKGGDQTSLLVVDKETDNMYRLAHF

T4: SNTB1, Q13884
T4 sequence (Q13884 107-205, limits assumed, looked up): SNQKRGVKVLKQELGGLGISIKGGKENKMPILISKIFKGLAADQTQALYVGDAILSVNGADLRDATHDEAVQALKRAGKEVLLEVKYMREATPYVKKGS

T5: NHERF3_4, Q5T2W1
T5 sequence (Q5T2W1 373-468, limits assumed, looked up): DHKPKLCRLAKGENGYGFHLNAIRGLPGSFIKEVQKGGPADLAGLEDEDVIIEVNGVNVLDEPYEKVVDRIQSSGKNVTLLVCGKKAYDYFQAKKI

T6: GRIP1_5, Q9Y3R0
T6 sequence (Q9Y3R0 568-668, limits assumed, looked up): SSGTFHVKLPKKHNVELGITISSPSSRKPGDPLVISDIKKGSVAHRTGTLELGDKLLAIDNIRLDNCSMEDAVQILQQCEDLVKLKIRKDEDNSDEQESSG

T7: MPDZ_5, O75970
T7 sequence (O75970 695-796, limits assumed, looked up): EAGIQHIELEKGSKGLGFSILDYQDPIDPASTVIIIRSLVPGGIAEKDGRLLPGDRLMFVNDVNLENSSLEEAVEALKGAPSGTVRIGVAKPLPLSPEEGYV

T8: LNX2_2, Q8N448
T8 sequence (Q8N448 334-432, limits assumed, looked up): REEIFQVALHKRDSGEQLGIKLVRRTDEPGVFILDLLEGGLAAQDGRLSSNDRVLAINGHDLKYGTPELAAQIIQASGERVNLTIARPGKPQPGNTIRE

T9: LIN7C, Q9NUP9
T9 sequence (Q9NUP9 88-185, limits assumed, looked up): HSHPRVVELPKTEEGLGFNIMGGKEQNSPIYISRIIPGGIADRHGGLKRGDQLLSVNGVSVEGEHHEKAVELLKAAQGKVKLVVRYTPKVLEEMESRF

T10: DVL3, Q92997
T10 sequence (Q92997 244-331, limits assumed, looked up): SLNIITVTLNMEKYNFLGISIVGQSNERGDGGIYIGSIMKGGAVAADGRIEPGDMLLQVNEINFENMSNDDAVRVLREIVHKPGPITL

T11: DLG3_2, Q92796
T11 sequence (Q92796 221-321, limits assumed, looked up): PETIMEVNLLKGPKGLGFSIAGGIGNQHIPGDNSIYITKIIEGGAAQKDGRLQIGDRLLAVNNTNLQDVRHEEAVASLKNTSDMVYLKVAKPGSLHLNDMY

T12: DFNB31_3, Q9P202
T12 sequence (Q9P202 811-907, limits assumed, looked up): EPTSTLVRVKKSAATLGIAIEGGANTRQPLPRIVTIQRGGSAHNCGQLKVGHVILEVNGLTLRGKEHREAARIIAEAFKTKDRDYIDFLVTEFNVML


How the values were obtained:
Experiment in all cases: holdup assay
Set-up in all cases: key: below the threshold = too weak to quantify, mostly under pKd 3.1 to 4
Conditions in all cases: plain residues with an end cap or a label only (N-terminal biotin on a linker: ado-ado)
FRMPD2_3, Q68DX3 = target: FRMPD2_3, Q68DX3
GRIP2_3, Q9C0E4 = target: GRIP2_3, Q9C0E4
SIPA1L2, Q9P2F8 = target: T1, SIPA1L2, Q9P2F8
SHANK1, Q9Y566 = target: T2, SHANK1, Q9Y566
NHERF3_3, Q5T2W1 = target: T3, NHERF3_3, Q5T2W1
SNTB1, Q13884 = target: T4, SNTB1, Q13884
LNX1_2, Q8TBB1 = target: LNX1_2, Q8TBB1
NHERF3_4, Q5T2W1 = target: T5, NHERF3_4, Q5T2W1
GORASP1, Q9BQQ3 = target: GORASP1, Q9BQQ3
AHNAK1, Q09666 = target: AHNAK1, Q09666
GRIP1_5, Q9Y3R0 = target: T6, GRIP1_5, Q9Y3R0
Inadl_2, Q8NI35 = target: Inadl_2, Q8NI35
TJP1_2, Q07157 = target: TJP1_2, Q07157
MPDZ_5, O75970 = target: T7, MPDZ_5, O75970
FRMPD4, Q14CM0 = target: FRMPD4, Q14CM0
LNX2_2, Q8N448 = target: T8, LNX2_2, Q8N448
LIN7C, Q9NUP9 = target: T9, LIN7C, Q9NUP9
PICK1, Q9NRD5 = target: PICK1, Q9NRD5
DVL3, Q92997 = target: T10, DVL3, Q92997
MAGI3_2, Q5TCQ9 = target: MAGI3_2, Q5TCQ9
DLG3_2, Q92796 = target: T11, DLG3_2, Q92796
SCRIB_2, Q14160 = target: SCRIB_2, Q14160
GRID2IP_1, A4D2P6 = target: GRID2IP_1, A4D2P6
GORASP2, Q9H8Y8 = target: GORASP2, Q9H8Y8
DFNB31_3, Q9P202 = target: T12, DFNB31_3, Q9P202

GRIP2_3, Q9C0E4, sequence (Q9C0E4 238-339): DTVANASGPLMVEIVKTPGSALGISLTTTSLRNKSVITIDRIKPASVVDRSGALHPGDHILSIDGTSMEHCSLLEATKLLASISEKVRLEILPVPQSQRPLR
GRID2IP_1, A4D2P6, sequence (A4D2P6 1-87): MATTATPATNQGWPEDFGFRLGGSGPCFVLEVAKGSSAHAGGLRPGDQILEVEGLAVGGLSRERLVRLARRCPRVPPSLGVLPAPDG
GORASP1, Q9BQQ3, sequence (Q9BQQ3 1-208): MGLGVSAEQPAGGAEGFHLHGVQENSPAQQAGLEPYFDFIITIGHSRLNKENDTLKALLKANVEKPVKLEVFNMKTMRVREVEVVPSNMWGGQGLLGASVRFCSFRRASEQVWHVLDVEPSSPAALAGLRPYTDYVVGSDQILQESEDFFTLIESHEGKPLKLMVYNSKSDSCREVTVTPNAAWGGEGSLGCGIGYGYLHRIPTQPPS
LNX1_2, Q8TBB1, sequence (Q8TBB1 371-470): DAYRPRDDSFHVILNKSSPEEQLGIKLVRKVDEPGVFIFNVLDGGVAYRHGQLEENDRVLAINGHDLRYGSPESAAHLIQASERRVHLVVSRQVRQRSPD
PICK1, Q9NRD5, sequence (Q9NRD5 17-115): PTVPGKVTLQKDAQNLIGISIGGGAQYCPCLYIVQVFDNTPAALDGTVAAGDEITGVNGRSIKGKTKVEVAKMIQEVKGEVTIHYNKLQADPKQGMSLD
AHNAK1, Q09666, sequence (Q09666 4-100): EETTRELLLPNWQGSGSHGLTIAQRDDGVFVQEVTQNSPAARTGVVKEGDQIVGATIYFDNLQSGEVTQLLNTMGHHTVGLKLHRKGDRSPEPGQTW
SCRIB_2, Q14160, sequence (Q14160 857-960): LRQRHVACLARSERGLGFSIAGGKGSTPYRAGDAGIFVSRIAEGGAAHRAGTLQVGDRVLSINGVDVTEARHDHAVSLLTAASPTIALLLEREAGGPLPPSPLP
Inadl_2, Q8NI35, sequence (Q8NI35 238-335): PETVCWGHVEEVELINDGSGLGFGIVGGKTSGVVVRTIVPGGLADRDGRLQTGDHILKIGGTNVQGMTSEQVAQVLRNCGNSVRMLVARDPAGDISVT
MAGI3_2, Q5TCQ9, sequence (Q5TCQ9 398-503): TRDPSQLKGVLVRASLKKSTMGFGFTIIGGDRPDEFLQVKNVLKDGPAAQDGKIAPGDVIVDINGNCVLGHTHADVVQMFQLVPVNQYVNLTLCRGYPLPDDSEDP
FRMPD2_3, Q68DX3, sequence (Q68DX3 1073-1166): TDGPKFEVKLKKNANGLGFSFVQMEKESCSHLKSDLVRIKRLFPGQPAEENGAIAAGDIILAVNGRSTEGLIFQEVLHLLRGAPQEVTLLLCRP
TJP1_2, Q07157, sequence (Q07157 181-274): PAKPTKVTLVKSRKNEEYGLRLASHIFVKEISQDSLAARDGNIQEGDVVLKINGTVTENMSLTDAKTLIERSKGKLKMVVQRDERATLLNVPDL
FRMPD4, Q14CM0, sequence (Q14CM0 67-160): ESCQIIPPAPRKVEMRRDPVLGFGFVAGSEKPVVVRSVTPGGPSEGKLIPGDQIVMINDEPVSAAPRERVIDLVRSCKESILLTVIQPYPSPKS

Binder	pKd (FRMPD2_3, Q68DX3)	pKd (GRIP2_3, Q9C0E4)	pKd (SIPA1L2, Q9P2F8)	pKd (SHANK1, Q9Y566)	pKd (NHERF3_3, Q5T2W1)	pKd (SNTB1, Q13884)	pKd (LNX1_2, Q8TBB1)	pKd (NHERF3_4, Q5T2W1)	pKd (GORASP1, Q9BQQ3)	pKd (AHNAK1, Q09666)	pKd (GRIP1_5, Q9Y3R0)	pKd (Inadl_2, Q8NI35)	pKd (TJP1_2, Q07157)	pKd (MPDZ_5, O75970)	pKd (FRMPD4, Q14CM0)	pKd (LNX2_2, Q8N448)	pKd (LIN7C, Q9NUP9)	pKd (PICK1, Q9NRD5)	pKd (DVL3, Q92997)	pKd (MAGI3_2, Q5TCQ9)	further results
PTPDLPQTRV [KLHDC7A, Q5VTJ3]	below the threshold	below the threshold	below the threshold	4.5	below the threshold	4.95	below the threshold	below the threshold	below the threshold	below the threshold	below the threshold	below the threshold	below the threshold	below the threshold	3.48	below the threshold	3.49	4.18	below the threshold	3.79	pKd (DLG3_2, Q92796): 4; pKd (SCRIB_2, Q14160): 3.48; pKd (GRID2IP_1, A4D2P6): below the threshold; pKd (GORASP2, Q9H8Y8): below the threshold; pKd (DFNB31_3, Q9P202): 4.1
ARSAAASNYV [CLDN4, O14493]	below the threshold	below the threshold	3.53	below the threshold	below the threshold	below the threshold	below the threshold	below the threshold	3.69	below the threshold	below the threshold	below the threshold	below the threshold	below the threshold	below the threshold	4.04	3.99	4.15	3.66	below the threshold	pKd (DLG3_2, Q92796): below the threshold; pKd (SCRIB_2, Q14160): below the threshold; pKd (GRID2IP_1, A4D2P6): below the threshold; pKd (GORASP2, Q9H8Y8): 4.01; pKd (DFNB31_3, Q9P202): below the threshold
ARGPPRESEV [FAM110D, Q8TAY7]	below the threshold	below the threshold	below the threshold	below the threshold	below the threshold	5.12	below the threshold	below the threshold	below the threshold	below the threshold	below the threshold	below the threshold	below the threshold	below the threshold	below the threshold	below the threshold	3.67	below the threshold	below the threshold	5.03	pKd (DLG3_2, Q92796): 5.19; pKd (SCRIB_2, Q14160): 4.9; pKd (GRID2IP_1, A4D2P6): below the threshold; pKd (GORASP2, Q9H8Y8): below the threshold; pKd (DFNB31_3, Q9P202): below the threshold
NTLNRKTTPV [CACNG8, Q8WXS5]	below the threshold	below the threshold	below the threshold	below the threshold	below the threshold	4.07	below the threshold	3.66	below the threshold	below the threshold	3.48	below the threshold	below the threshold	below the threshold	below the threshold	below the threshold	below the threshold	4.17	below the threshold	5.05	pKd (DLG3_2, Q92796): 4.59; pKd (SCRIB_2, Q14160): 3.62; pKd (GRID2IP_1, A4D2P6): below the threshold; pKd (GORASP2, Q9H8Y8): below the threshold; pKd (DFNB31_3, Q9P202): below the threshold
